In paper PMC10384657 one finds Kd data, which are given here for one molecule.

The assay addresses MPER25c (spike S2 membrane proximal region peptide) MPER (Severe acute respiratory syndrome coronavirus 2), P0DTC2. Kind of assay: SPR. Particulars: modification not given.

As usually defined, the Kd is the constant that tells how readily two partners part at equilibrium. A high value points to weaker binding.

FGAGAALQIPFAMQMAYRF [PN19 (spike S2 internal fusion peptide)] gave a Kd of 9.44 nM.
